Laboratory results published in patent US7393448B2, “Method of binding a compound to a sensor surface” (Applied NanoSystems B.V., priority 2002, dated 2008).
One block for each molecule: values may come before it.

Key:
[1] = Immobilization of electroactive molecules on HYDPt-1-modified electrodes (cyclic voltammetry); format: physicochemical; details: Q10 bound to GCE covered with HYDPt-1
Description: Electrochemical experiments. Voltammetry experiments were done at 20° C. in three-electrode arrangement, with a calomel reference electrode, platinum foil counter electrode and GE, GCE or TMFE as working electrodes. Eco Chemie AUTO-LAB PGSTAT 30 system was used as the potentiostat with an IBM PC and Eco Chemie software. In order to prepare the TMFE, a silver wire or silver disk electrode precleaned in concentrated perchloric acid was touched to a drop of mercury and cathodically polarized in 0.1 M KOH to obtain a shining and uniform layer of mercury, ca. 1 mm thick. The GE and GCE were polished on Buehler polishing papers and paste, and the GE was cleaned in concentrated nitric acid. The electrodes were coated with the self-assembled hydrophobin upon contact with the surface of solutions containing 2 μg of hydrophobin per 1 ml of 10 mM Tris-HCl buffer. The time of the hydrophobin self-assembly and the conditions of Q0, Q10 and diazobenzene adsorption on hydrophobin-coated electrodes are given below.
Hydrophobin as a “molecular glue” for immobilizing molecules on the electrode surface. In the present work, we checked the ability of HYDPt-1 to bind through adsorption to different types of electroactive molecules to electrode surfaces. […]
Curve 1 was recorded after adsorption of the diazobenzene for the same lapse of time, but on the bare GCE. […]

[2] = Immobilization of cholesterol oxidase on hydrophobin-coated glassy carbon electrode, current response to cholesterol; format: biochemical; details: GCE, phosphate buffer pH 7 (25 mM), cholesterol added
Text: Immobilization of cholesterol oxidase on a glassy carbon electrode. […] The coated electrode was submerged in a cholesterol oxidase-containing solution (0.5 U/ml) for two hours and rinsed with water.
To overcome the poor solubility of cholesterol in water, the cholesterol was solubilized in isopropanol with Triton in phosphate buffer (Ropers, M-H. et al., 2001, Phys. Chem. Chem. Phys. 3:240-245). Upon addition of cholesterol, the immobilized cholesterol oxidase catalyzed the reaction and led to formation of hydrogen peroxide. The peroxide produced a small detectable current over the electrode which correlated to the concentration of cholesterol added.

[3] = cited from earlier work
[4] = at 50 μg ml^−1; cited from earlier work

stability of ubiquinone reduction and oxidation signals [1]: remained unchanged for several weeks
Molecule: COC1=C(OC)C(=O)C(C/C=C(\C)CC/C=C(\C)CC/C=C(\C)CC/C=C(\C)CC/C=C(\C)CC/C=C(\C)CC/C=C(\C)CC/C=C(\C)CC/C=C(\C)CCC=C(C)C)=C(C)C1=O [Q10, ubiquinone 50]

Molecule: cholesterol oxidase
enzyme activity upon immobilization on the hydrophobin layer [2]: remaining active

B1: SC3: best characterized class I hydrophobin, of Schizophyllum commune (protein, UniProt P16933 25-136, looked up)
Class I hydrophobin SC3: GGHPGTTTPPVTTTVTVTTPPSTTTIAAGGTCTTGSLSCCNQVQSASSSPVTALLGLLGIVLSDLNVLVGISCSPLTVIGVGGSGCSAQTVCCENTQFNGLINIGCTPINIL
water contact angle, hydrophilic side of SC3 membrane ([3]; hydrophilic side): 36 ° | water contact angle, hydrophobic side of SC3 membrane ([3]; hydrophobic side): 110 ° | maximal lowering of the water surface tension (from 72) [4]: 24 mJ m^−2
